Data from patent US20260250398A1 (ANTLERA THERAPEUTICS, published 2026).
Substitutions are numbered along the chain they refer to.

T1: LRP6 (low-density lipoprotein receptor-related protein 6) (UniProt O75581 20-1370, limits assumed)
T1 sequence (looked up): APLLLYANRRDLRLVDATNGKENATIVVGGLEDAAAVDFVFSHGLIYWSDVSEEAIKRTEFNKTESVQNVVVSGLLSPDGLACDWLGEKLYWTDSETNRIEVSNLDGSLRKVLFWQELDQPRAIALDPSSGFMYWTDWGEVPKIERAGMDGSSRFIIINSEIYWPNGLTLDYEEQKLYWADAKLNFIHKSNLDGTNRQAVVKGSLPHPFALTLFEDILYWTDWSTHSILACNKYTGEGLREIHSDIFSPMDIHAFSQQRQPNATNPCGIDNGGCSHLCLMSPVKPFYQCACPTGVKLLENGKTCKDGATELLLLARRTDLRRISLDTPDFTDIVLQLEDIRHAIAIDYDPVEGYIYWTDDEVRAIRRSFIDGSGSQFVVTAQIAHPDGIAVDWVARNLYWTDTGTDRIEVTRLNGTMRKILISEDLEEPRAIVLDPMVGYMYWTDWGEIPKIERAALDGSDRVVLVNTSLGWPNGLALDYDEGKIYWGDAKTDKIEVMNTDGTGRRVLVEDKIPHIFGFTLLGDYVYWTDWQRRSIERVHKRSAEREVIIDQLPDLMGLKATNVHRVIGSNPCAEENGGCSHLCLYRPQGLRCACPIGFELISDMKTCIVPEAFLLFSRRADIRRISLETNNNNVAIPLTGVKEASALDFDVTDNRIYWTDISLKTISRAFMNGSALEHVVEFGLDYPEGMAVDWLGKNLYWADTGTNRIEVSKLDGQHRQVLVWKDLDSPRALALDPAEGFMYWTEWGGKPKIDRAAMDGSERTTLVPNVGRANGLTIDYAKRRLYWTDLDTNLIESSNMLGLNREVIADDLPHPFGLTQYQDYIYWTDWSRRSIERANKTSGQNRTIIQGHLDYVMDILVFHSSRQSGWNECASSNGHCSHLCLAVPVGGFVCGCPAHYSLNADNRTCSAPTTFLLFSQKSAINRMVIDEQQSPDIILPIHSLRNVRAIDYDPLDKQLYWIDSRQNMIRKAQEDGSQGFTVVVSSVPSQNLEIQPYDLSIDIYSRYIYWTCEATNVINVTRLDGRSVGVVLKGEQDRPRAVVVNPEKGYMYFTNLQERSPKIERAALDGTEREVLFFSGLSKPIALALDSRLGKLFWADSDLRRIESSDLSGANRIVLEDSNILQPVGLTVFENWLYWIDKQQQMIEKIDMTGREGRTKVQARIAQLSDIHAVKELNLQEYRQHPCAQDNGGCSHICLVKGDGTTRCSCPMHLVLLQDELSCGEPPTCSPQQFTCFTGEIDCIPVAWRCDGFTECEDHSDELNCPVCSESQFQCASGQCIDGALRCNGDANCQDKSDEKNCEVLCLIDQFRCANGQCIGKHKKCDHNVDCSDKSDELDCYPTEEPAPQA

B1: CT0001 (FZD IgG-LRP Diabody; paratopes 5016; 2539, 2542) (bispecific antibody)
heavy 1: EVQLVESGGGLVQPGGSLRLSCAASGFNIHSSSIHWVRQAPGKGLEWVAATYSSFGSITYADSVKGRFTISADTSKNTAYLQMNSLRAEDTAVYYCARYHHPFGYALDYWGQGTLVTVSSASTKGPSVFPLAPSSKSTSGGTAALGCLVKDYFPEPVTVSWNSGALTSGVHTFPAVLQSSGLYSLSSVVTVPSSSLGTQTYICNVNHKPSNTKVDKKVEPKSCDKTHTCPPCPAPELLGGPSVFLFPPKPKDTLMISRTPEVTCVVVDVSHEDPEVKFNWYVDGVEVHNAKTKPREEQYNSTYRVVSVLTVLHQDWLNGKEYKCKVSNKALPAPIEKTISKAKGQPREPQVYTLPPIRELMTSNQVSLSCAVKGFYPSDIAVEWESNGQPENNYKTTPPVLDSDGSFFLVSKLTVDKSRWQQGNVFSCSVMHEALHNHYTQKSLSLSPGKSGSETPGTSESATPESGGGEVQLVESGGGLVQPGGSLRLSCAASGFNISSYYIHWVRQAPGKGLEWVASIYSSYGYTSYADSVKGRFTISADTSKNTAYLQMNSLRAEDTAVYYCARTVRGSKKPYFSGWAMDYWGQGTLVTVSSGGGGSDIQMTQSPSSLSASVGDRVTITCRASQSVSSAVAWYQQKPGKAPKLLIYSASSLYSGVPSRFSGSRSGTDFTLTISSLQPEDFATYYCQQYSWGPFTFGQGTKVEIK
heavy 2: EVQLVESGGGLVQPGGSLRLSCAASGFNIHSSSIHWVRQAPGKGLEWVAATYSSFGSITYADSVKGRFTISADTSKNTAYLQMNSLRAEDTAVYYCARYHHPFGYALDYWGQGTLVTVSSASTKGPSVFPLAPSSKSTSGGTAALGCLVKDYFPEPVTVSWNSGALTSGVHTFPAVLQSSGLYSLSSVVTVPSSSLGTQTYICNVNHKPSNTKVDKKVEPKSCDKTHTCPPCPAPELLGGPSVFLFPPKPKDTLMISRTPEVTCVVVDVSHEDPEVKFNWYVDGVEVHNAKTKPREEQYNSTYRVVSVLTVLHQDWLNGKEYKCKVSNKALPAPIEKTISKAKGQPREPMVFDLPPSREEMTKNQVSLWCMVKGFYPSDIAVEWESNGQPENNYKTTPPVLDSDGSFFLYSKLTVDKSRWQQGNVFSCSVMHEALHNHYTQKSLSLSPGKSGSETPGTSESATPESGGGEVQLVESGGGLVQPGGSLRLSCAASGFNISYSSIHWVRQAPGKGLEWVAYISSYYGYTYYADSVKGRFTISADTSKNTAYLQMNSLRAEDTAVYYCARAHYFPWAGAMDYWGQGTLVTVSSGGGGSDIQMTQSPSSLSASVGDRVTITCRASQSVSSAVAWYQQKPGKAPKLLIYSASSLYSGVPSRFSGSRSGTDFTLTISSLQPEDFATYYCQQYYWPITFGQGTKVEIK
light: DIQMTQSPSSLSASVGDRVTITCRASQSVSSAVAWYQQKPGKAPKLLIYSASSLYSGVPSRFSGSRSGTDFTLTISSLQPEDFATYYCQQGVYLFTFGQGTKVEIKRTVAAPSVFIFPPSDEQLKSGTASVVCLLNNFYPREAKVQWKVDNALQSGNSQESVTEQDSKDSTYSLSSTLTLSKADYEKHKVYACEVTHQGLSSPVTKSFNRGEC
B2: CM0011 (FZD Diabody-Fc-LRP Diabody; paratopes 5019; 2539, 2542) (bispecific antibody)
chain 1: MNLLLILTFVAAAVAEFEVQLVESGGGLVQPGGSLRLSCAASGFNIGSSSIHWVRQAPGKGLEWVASIYSAFASTSYADSVKGRFTISADTSKNTAYLQMNSLRAEDTAVYYCARYHFPFGFALDYWGQGTLVTVSSGGGGSDIQMTQSPSSLSASVGDRVTITCRASQSVSSAVAWYQQKPGKAPKLLIYSASSLYSGVPSRFSGSRSGTDFTLTISSLQPEDFATYYCQQGVYLFTFGQGTKVEIKLEDKTHTKVEPKSSDKTHNCPPCPAPELLGGPSVFLFPPKPKDTLMISRTPEVTCVVVDVSHEDPEVKFNWYVDGVEVHNAKTKPREEQYNSTYRVVSVLTVLHQDWLNGKEYKCKVSNKALPAPIEKTISKAKGQPREPQVYTLPPIRELMTSNQVSLSCAVKGFYPSDIAVEWESNGQPENNYKTTPPVLDSDGSFFLVSKLTVDKSRWQQGNVFSCSVMHEALHNHYTQKSLSLSPGKSGSETPGTSESATPESGGGEVQLVESGGGLVQPGGSLRLSCAASGFNISSYYIHWVRQAPGKGLEWVASIYSSYGYTSYADSVKGRFTISADTSKNTAYLQMNSLRAEDTAVYYCARTVRGSKKPYFSGWAMDYWGQGTLVTVSSGGGGSDIQMTQSPSSLSASVGDRVTITCRASQSVSSAVAWYQQKPGKAPKLLIYSASSLYSGVPSRFSGSRSGTDFTLTISSLQPEDFATYYCQQYSWGPFTFGQGTKVEIK
chain 2: MNLLLILTFVAAAVAEFEVQLVESGGGLVQPGGSLRLSCAASGFNIGSSSIHWVRQAPGKGLEWVASIYSAFASTSYADSVKGRFTISADTSKNTAYLQMNSLRAEDTAVYYCARYHFPFGFALDYWGQGTLVTVSSGGGGSDIQMTQSPSSLSASVGDRVTITCRASQSVSSAVAWYQQKPGKAPKLLIYSASSLYSGVPSRFSGSRSGTDFTLTISSLQPEDFATYYCQQGVYLFTFGQGTKVEIKLEDKTHTKVEPKTSDKTHTCPPCPAPELLGGPSVFLFPPKPKDTLMISRTPEVTCVVVDVSHEDPEVKFNWYVDGVEVHNAKTKPREEQYNSTYRVVSVLTVLHQDWLNGKEYKCKVSNKALPAPIEKTISKAKGQPREPMVFDLPPSREEMTKNQVSLWCMVKGFYPSDIAVEWESNGQPENNYKTTPPVLDSDGSFFLYSKLTVDKSRWQQGNVFSCSVMHEALHNHYTQKSLSLSPGKSGSETPGTSESATPESGGGEVQLVESGGGLVQPGGSLRLSCAASGFNISYSSIHWVRQAPGKGLEWVAYISSYYGYTYYADSVKGRFTISADTSKNTAYLQMNSLRAEDTAVYYCARAHYFPWAGAMDYWGQGTLVTVSSGGGGSDIQMTQSPSSLSASVGDRVTITCRASQSVSSAVAWYQQKPGKAPKLLIYSASSLYSGVPSRFSGSRSGTDFTLTISSLQPEDFATYYCQQYYWPITFGQGTKVEIK
B3: CM0126 (FZD Diabody-Fc-LRP Diabody; paratopes 5016; 2539, 2542) (bispecific antibody)
chain 1: B2 chain 1 with G47H, S67A, I68T, A71S, A73G, T75I, S76T, F118H, F122Y
chain 2: B2 chain 2 with G47H, S67A, I68T, A71S, A73G, T75I, S76T, F118H, F122Y

Target: T1, LRP6 (low-density lipoprotein …)
Assay: cell-based or functional assay

Binder	TOPFLASH % Wnt Maxima [% Wnt Maxima]
B1	57
B2	63
B3	52
